Source: the Human Domainome abundance scans (Beltran et al. 2025)
± gives the uncertainty stated by the source.

experiment: abundance fitness (aPCA) (normalised: wild type 0, dead -1); higher = more abundant; growth selection in yeast, the domain comes from the species named; settings: Homo sapiens

Substance | abundance fitness
SAFB-like transcription modulator D40F, Q9NWH9 | -1 ± 0.39
SAFB-like transcription modulator S32V, Q9NWH9 | -0.023 ± 0.051
BAG family molecular chaperone regulator 3 R19Q, O95817 | -0.333 ± 0.084
SAFB-like transcription modulator D62E, Q9NWH9 | -0.397 ± 0.047
BAG family molecular chaperone regulator 3 F38I, O95817 | -0.692 ± 0.34
SAFB-like transcription modulator I49M, Q9NWH9 | 0.03 ± 0.057
SAFB-like transcription modulator T46H, Q9NWH9 | 0.011 ± 0.071
SAFB-like transcription modulator E59W, Q9NWH9 | -1.02 ± 0.089
SAFB-like transcription modulator V44S, Q9NWH9 | 0.036 ± 0.051
BAG family molecular chaperone regulator 3 P32L, O95817 | -0.458 ± 0.12
SAFB-like transcription modulator R51T, Q9NWH9 | -0.57 ± 0.13
BAG family molecular chaperone regulator 3 E57F, O95817 | -0.052 ± 0.28
SAFB-like transcription modulator K20D, Q9NWH9 | -0.413 ± 0.11
SAFB-like transcription modulator R37V, Q9NWH9 | -1.06 ± 0.08
BAG family molecular chaperone regulator 3 D18L, O95817 | -0.313 ± 0.12
BAG family molecular chaperone regulator 3 T34K, O95817 | 0.244 ± 0.23
SAFB-like transcription modulator D62T, Q9NWH9 | -0.212 ± 0.066
SAFB-like transcription modulator I22F, Q9NWH9 | -0.372 ± 0.087
SAFB-like transcription modulator D40E, Q9NWH9 | -0.318 ± 0.086
SAFB-like transcription modulator N65H, Q9NWH9 | -0.166 ± 0.084
SAFB-like transcription modulator G43V, Q9NWH9 | -0.601 ± 0.26
SAFB-like transcription modulator R36S, Q9NWH9 | -0.048 ± 0.42
SAFB-like transcription modulator D40V, Q9NWH9 | -0.417 ± 0.072

Substance | abundance fitness
BAG family molecular chaperone regulator 3 R19L, O95817 | -0.455 ± 0.17
BAG family molecular chaperone regulator 3 I28D, O95817 | -0.503 ± 0.18
BAG family molecular chaperone regulator 3 G17S, O95817 | 0.82 ± 0.073
BAG family molecular chaperone regulator 3 S44Y, O95817 | -0.485 ± 0.39
BAG family molecular chaperone regulator 3 D31N, O95817 | -0.813 ± 0.26
SAFB-like transcription modulator G61L, Q9NWH9 | -0.098 ± 0.043
SAFB-like transcription modulator E67C, Q9NWH9 | -0.252 ± 0.087
SAFB-like transcription modulator L68Q, Q9NWH9 | -0.14 ± 0.075
BAG family molecular chaperone regulator 3 P32A, O95817 | -0.735 ± 0.17
BAG family molecular chaperone regulator 3 P24G, O95817 | -0.77 ± 0.22
BAG family molecular chaperone regulator 3 P32Y, O95817 | -0.23 ± 0.38
BAG family molecular chaperone regulator 3 P55C, O95817 | 0.133 ± 0.29
SAFB-like transcription modulator K31R, Q9NWH9 | -0.184 ± 0.047
BAG family molecular chaperone regulator 3 V54K, O95817 | -0.008 ± 0.14
BAG family molecular chaperone regulator 3 P59V, O95817 | 0.263 ± 0.34
SAFB-like transcription modulator I49N, Q9NWH9 | -0.518 ± 0.073
SAFB-like transcription modulator S50K, Q9NWH9 | -0.111 ± 0.083
SAFB-like transcription modulator I49Q, Q9NWH9 | -0.068 ± 0.05
SAFB-like transcription modulator V27I, Q9NWH9 | -0.011 ± 0.054
SAFB-like transcription modulator K45I, Q9NWH9 | -0.513 ± 0.079
BAG family molecular chaperone regulator 3 S44G, O95817 | -0.483 ± 0.11
BAG family molecular chaperone regulator 3 P23K, O95817 | -0.604 ± 0.094
BAG family molecular chaperone regulator 3 S14K, O95817 | 0.023 ± 0.28
